These results are taken from the DeepSol protein solubility set.

The data set is described as follows: soluble on expression in E. coli; label from the status in PepcDB or PDB records.
As for “MGSDKIHHHHHHMPRIKDGFKGERAIVLPAFLIEELKQDPLGSELYITDIGYYPHAYFHYRKRDTEEVTEFILIYCMEGEGWFELDKHQYAVTANQFFILPEHQAHAYGSNEENPWTIYWIHFNGTKAAFFSAGFDRPKSITPQEDSRIKERLVLFEEIYSSISFGYSKNYMLYATTSLFHFLGSMKFIGEYRDCGSMRNSYRNKDVVQIAIHFMQENLSKTIRLADIAAEVNLSVSYFSNLFEEKTGSSPLRYLTYLRIQEACHYLDFTNLKINQISPLVGYEDSLYFSRLFTKTMGVPPSAYKEKKKG”, the “soluble on expression in E. coli” value is listed as “not soluble”.
The result for “MTEYIQDAIPAKLAIAIANPIFPQLDSQLRAGRHISIEMLDEHAFLMDFQTELESFYRRYHVDLIRAPEGFFYLRPKASTLIARSAMSEMEMLVGKVLCYLYLSPERLAQQGIFSQDDVYEELLNLADENKLLKAVNPRSTGSDLDRAKLAEKVGGALRRLARIGIITRVGEQNSKKFIISEAVFRFGADVRAGDDPREVQLRLIRDGEATTPTLLTTEAIEFAEDGARDELEESEAELEHHHHHH” reads “soluble”.
Consider “MSLIEELFDQMSKGNLLLIDMTYDMFNGMQTYIGDPPFKHEYFRKGNKYGEVTLSTVYMGLHSGTHIDLPLHFVPNGESVEKFNIIQFIGYGNVLDLSYKKLGEPISSNDLKKFDDRIKENYVVMLYTGFSATRGKEDFLYNWPYLDSNGADYLVSKKIRAVGIESMSIAGWAGKEYPPRTNWDEVVYVHHKLLSNDIIILESVNNMKKVLEECKNGEALFFYAPLKIVGAEGGPTRLFAICEKREGHHHHHH”, for which the “soluble on expression in E. coli” value is given as “not soluble”.
On to “MSSPRSNKPKIVNGPGGYILQDVPHLIDYLPDLPTYPNPLQDNPAYSVVKQYFVHADDSVPEKVVVHKDGPRGVHFRRAGPRQKVYFESDEVHACIVTCGGLCPGLNTVIREVVSSLSYMYGVKRILGIDGGYRGFYAKNTIPLNSKVVNDIHKRGGTIIGTSRGGHDTNKIVDSIQDRGINQVYIIGGDGTQRGASVIFEEIRRRRLKVAVVGIPKTIDNDIPVIDKSFGFDTAVEEAQRAINAAHVEAESNENGIGFVKLMGRYSGYIAMYATLASRDVDCCLIPESPFYLEGEGGLFEFIERRLKDHGHMVIVLAEGAGQDLMCKSMESTPMDASGNKLLKDVGLWLSQSIKDHFKKNKMVMNLKYIDPTYMIRAVPSNASDNVYCTLLAQSAVHGAMAGYTGYTSGLVNGRQTYIPFYRITETQNNVVITDRMWARLLSSTNQPSFLGPKDTSEEKKELPETPLLDDGAVDIPPVTKEVTK”, for which the “soluble on expression in E. coli” value was “soluble”.
The result for “MPAAAPGKNFDLSHWKLQLPDANTTEISSANLGLGYTSQYFYTDTDGAMTFWAPTTGGTTANSSYPRSELREMLDPSNSKVNWGWQGTHTMKLSGKTVQLPSSGKIIVAQIHGIMDDGTNAPPLVKAVFQDGQLDMQVKQNSDGTGSDVHNYFTGIKLGDLYNMEIRVTDGVAYVTMNGDTRSVDFVGKDAGWKNLKYYFKAGNYVQDNTSTGGSAIAKLYSLSVSHSNLEHHHHHH” reads “soluble”; that for “MKFLITGGAGFIGSNLAFALQERYPEAKIYVLDNFSSGHFKNLIGFKGQVITGDISDPSLWDYVRKNFHFDVIFHEAAITDTTVEDQYFMMKTNADSFRYILDLAVEWNAKVIYASSAGVYGNSPPPMREDKGLEPENIYGFSKLMMDHIAMDYMERYPEMNIVGLRYFNVYGPREDYKGKTASMIYQLAVKMIKGERPRLFKWGEQRRDFVYIKDVIKANLLALEKNVSGIFNVGTGRARSFNEIVSILNKELGTNYEIEYFDCPYDFYQKFTEADLTKIREALGYEPEYSLEEGIKDYLPYIIKRVKK”, “soluble”; that for “MASKDAQVTLSRGEQSVKRIKEFNPKKDNFSILLMGIDARPGQSMDKERSDAMVLATFNRKDKSVKLLSIPRDSYVNIPGRGYDKITHAHSLGGRDLSTETVENLLDIPVDYVMEANFSAFKEVVDELGGVPITIKEDYIVRQIKKDTKGKVNLQTGEQTLGGEEALAYVRTRKADTDLKRGERQMEVIKSIINKSKSLTSIPAYDDILDTVGKNVSMNLSLNDAIGLIPFMTSIQTVDTLQLKGSDYQPGKVYYFQLDQENLNEIKQELKQQLDVLEHHHHHH”, “soluble”.
The result for “MAFDDLRSFLQALDDHGQLLKISEEVNAEPDLAAAANATGRIGDGAPALWFDNIRGFTDARVAMNTIGSWQNHAISLGLPPNTPVKKQIDEFIRRWDNFPIAPERRANPAWAQNTVDGEEINLFDILPLFRLNDGDGGFYLDKACVVSRDPLDPDNFGKQNVGIYRMEVKGKRKLGLQPVPMHDIALHLHKAEERGEDLPIAITLGNDPIITLMGATPLKYDQSEYEMAGALRESPYPIATAPLTGFDVPWGSEVILEGVIESRKREIEGPFGEFTGHYSGGRNMTVVRIDKVSYRSKPIFESLYLGMPWTEIDYLLEHHHHHH” reads “not soluble”.
The result for “MKQSTIALALLPLLFTPVTKAREVQLQQSGPELVKPGASVKMSCKASGYTFTSYVMHWVKQKPGQGLEWIGYINPYNDGTKYNEKFKGKATLTSDKSSSTAYMELSSLTSEDSAVYYCARGAYKRGYAMDYWGQGTSVTVSSRGGGGSGGGGSGGGGSDLVMSQSPSSLAVSAGEKVTMSCKSSQSLFNSRTRKNYLAWYQQKPGQSPKLLIYWASTRESGVPDRFTGSGSGTDFTLTISSVQAEDLAVYYCKQSYYHMYTFGSGTKLEIKHHHHHGLVPRGSGDPKADNK” reads “soluble”; that for “MEQLKCHVKQYAWGKYGEESEVARLFADGHESFQIDQKTPYAELWMGTHPDGPAQLKKCSTKLSTYLAKNPSPLTNNNSAKNIHLPFIMKVMSIRTTLSLQVHPTKEQARRLHEKDPIHYPDRNHKPELAYALTRFELLCGFRPAREILQNLQTFPSFRLLFGGDTYAKPLEDCIQQMKDLNSVDQKSTEFKDSRKYLEDCFRFMMVPERNDVHDLIAKLLSELDNGLRGAVEEVTVGVIRKMSVDFPNDIGIFSPLFLNHMILEPGQCCYYAAEELHAYLSGECVECVGCSNNTIRAAMTPKYIDRDALCSVLNYKMTEQKDYLVPENKLTECVDMYAPDCKDFQLHRIRVGTHQTVEEMMIPTLDCASIFVVVSGKGTLEEATIDNQLIGQYEVKRGDIFYIPPKHNIRFSSCSEPLEGYRTFSYEMGPDHDTRLVTPVQNAVPTITEKMFKLDADMEEAITAVV”, “not soluble”; that for “MGSDKIHHHHHHMSRPAITAIPVFKLYGETTAWPTPDLIHCESIPERSRMHDWEIKPHRHGDLVQLLYVQSGKAMLKVEDRVRKVETASLQVVPALSVHTFRFAEDIQGHILSLAKPLVEQLETTLDSSAMRTARCYELGADSHYVDTLFSAIAREYRQPRAGRDLMLHSLINVLVVWLSRRNSEEAGEQVQTMDRGREHLQVFMHQLETCFREHWSIEQHAQAMGISAAHLNALCRRLCDQSALQIISQRLLLEAKRNLIYTTLTINQVSDSLGFSEPAYFSRFFKRATGQSPREFRQQK”, “not soluble”.
With “MRGSHHHHHHGLVPRGSMKITVLGCGALGQLWLTALCKQGHEVQGWLRVPQPYCSVNLVETDGSIFNESLTANDPDFLATSDLLLVTLKAWQVSDAVKSLASTLPVTTPILLIHNGMGTIEELQNIQQPLLMGTTTHAARRDGNVIIHVANGITHIGPARQQDGDYSYLADILQTVLPDVAWHNNIRAELWRKLAVNCVINPLTAIWNCPNGELRHHPQEIMQICEEVAAVIEREGHHTSAEDLRDYVMQVIDATAENISSMLQDIRALRHTEIDYINGFLLRRARAHGIAVPENTRLFEMVKRKESEYERIGTGLPRPW”, the “soluble on expression in E. coli” value is “soluble”.
Regarding “MILHPRPSPIAAAMYQLRDIGVDAIILHGPSGCCFRTARLLEIDGIRVFTSAMGENDFIFGAMDKLRDVIAEVLEYLKKETPKSEKYKIGIVGTCASMIIGEDLESLIDDFDDIIIPVDIHSGLVDNTVGAIRAMDGALNAGLIDYSEYERQKKMLEHHHHHH”, the “soluble on expression in E. coli” value was “soluble”.
Take “SAVAIPQATSLTNLVFLTKLIPRGSFTTILPKHHRKPIFVFSLQTQFSSPVTTLTSKNPKDDEQQQKLSFTLNYLIDSCGLSPDSATVASRKLLLDSPERPNTVLNLLRDHGFTTAQISSLVKKRPVLLLANAESVLLPKLSFFLSIGVSKSLLARTLASDPTILTRSLVNQLIPSYNFLKSVLDSDEKIVAALRRTTWVFLEDHTKNLVPNINYMAETGVPEKCIKLLLTHFPEAVMQKNHEFQAIAKQAQEMGFNPQKSTFVLAIHALSGKGNKSIWDKCFEVYQRWGWSEDDIMCAFKKHPHCMMLSERKINRTMEYFVNEMNMAPRSIAQCPVVLFFSLEKRIIPRCSVTKVLVSNGLVKEDWSLTSLLVPVEKVFLEKLVIKYEEELPELMNLYLGCTKL”: the “soluble on expression in E. coli” value is “soluble”.
For “MGSDKIHHHHHHLDGQALKQAVTPYFAGVLHEGLSRLKAEVYQEMEEIRLRAAQPLLLKIGESEWGLTSRGELTKKLPEAINASREDLYRTIASISDNSLYALEEEIRRGFITIPGGHRVGLAGQVIVQAAGIKGIKEFSSICFRLAREKKGCARTILPHIISTGTIVNTLIISPPRCGKTTILRDIARSISTGSSACPPHNIAIIDERSEIAGTHRGLAQLDVGIRSDVLDACPKSWGMMMAIRSLSPQVLIADEIGRKEDVEALQECVNAGVAVICSIHARNLEELSKRPLIKKLLSQGAFRLGVVLSRRNGPGTVEEIIRWD” the value was “not soluble”.
Take “MTKKKAKKNQKTGAAAAPPHESQKKEKENDFEMLEDIKRDEDLFFSETDISNISNFIRTTNKSFNSLGNTFVEQFTNRCSLAIFQALATCFEIHSEERDDVIRRLNIIYIVWRLPDLEPELRPKPPKNLSDVYSHPYATFLFAAEQIEHRIEAMLARIIVSNNINQVEKLTAPDFIQKAAAGGLTVVVEGIDRTGFVDWCEANTDHWPEVHDSVVPLPKAMRELGCERKDYESGMAEAFYPIMHNAPTQLPPRMEALEQEDPIIREWRLKVDPENTSATPVIYSMCSGDKMQEELMQAFDELEPTIAEYQSDLIAGMTAPELEELNKQIDCDDQMSQSSDSAPPSEVSSDLELDTALDIRDGMTMPLVDLKDEVIEGCVDRILDGTTLTTSKSDMMIQFVRTALITHPQYDRLLQASVLDENIISFIRTNVKFAGAFLVRNALSEQDTCLLFKRYMRLCEGVNSTVHSLETVLKLSKEFIEHDKLTQEHREVVLAFVRHTIRTCEGDRTVRLVAMLVKKLLRERVLNVEDIAADVKPFTLKYTDNRECTALYQSMINMQNGGGGGGQENMTTSTTTTTTTTKSSSPNSLSTTTTTTSHNPGASATTTTTTVVKTCGPATFKQTSRKVVLQFKNPSQNAHF”: the “soluble on expression in E. coli” value is given as “not soluble”.
For “MGSDKIHHHHHHVSDTVDHNAWKTTGVVVIQNDVLTLAGSNARALLNDGKGYTNFELDMDVRTTTGGKGYIGIHTDATDRKGYRIALNNDREDPVWWRMTGSLVSVRNLTKSFVKENEWFKMNIRVEGRLIRVRINGETVVEYIEPSKPFRLKENAKALLSQGTISLVGTGRGNLQFKNISLEAFSAKGIDIPAQWANAVDEQTDEIIRLHQEDFPVLDYHVHLKGGLTKEVAARQSRQTGVNYGLAINCGIGFSITNDTELYNYLDTMRTQPFILAMQAEGREWVTTFSEAARNSFDYVFTDAMTFLDHKGRRTHLWVNKEVIIDDEQAYMDMMLDRICSVLEEPVDMYVNSCFLPDAMSDRYDMFWTEERIDRFVNALAKSGKALEINELYHIPNKAIIQKAKAAGVKFTFGSNNITPEVGTLDYCIRMKKECGLTAQDMYKPHINI” the value was “not soluble”; for “MTGTVYKLFGNRLLNARNQLDKNLLEMAMQMVYGKDMVTKSGDILIDIQLNKDGSLQSKHYTLDVGEVINSYNIDPLCECFKY”, “not soluble”.
